This series is described as follows: label from the status in PepcDB records.
Turning to “MQLPPIPDNELQRLSTLKALNILDTNAEERFDRITRLTRRIFALPICVVTLVDASRQWFKSCQGLEVTETSRDISFCGHAINHDGIFIVNDAQMDPRFHDNPLVTQSPHIRFYAGYPLTIRGEYRVGTLCLIGNEPREFSADDIETLTDLGQMVEAELLSISLNTLDPLTMISNRRGFEQLAFQSLASCRRTNSQAALVFFDLDFFKELNDSFGHRKGDQVLYDFAHLLMAAFRESDVIARLGGDEFVVLLSFVKIDAVHVAIERFQSLLEQYNQQHPQQPTLVSSIGVAHWSPELDINLEDLLDAADRAMYQDKAEHHLNKPE”, the protein production entry was “failed”.

As for “MQLQVMNSPFNQEQAELLNRLLPTLTESQKIWLSGYLSAQSVSAQEAAGTPAAAVSAEAPAPAVSKEVTVLYGSQTGNAQGLAENAGKQLEQSGFQVTVSSMSDFKPNQLKKVTNLLIVVSTHGEGEPPDNALSFHEFLHGRRAPKLEDLRFSVLALGDSSYEFFCQTGKEFDQRLEELGGKRISPRVDCDLDYDEPAAEWLEGVLKGLNEAGGGSAAPAPAAASQTGESSYSRTNPFRAEVLENLNLNGRGSNKETRHVELSLEGSGLTYEPGDSLGVYPENDPELVELLLKEMNWDPEEIVTLNKQGDVRPLKEALISHYEITVLTKPLLEQAAQLTGNDELRELLAPGNEENVKAYIEGRDLLDLVRDYGPFSVSAQEFVSILRKMPARLYSIASSLSANPDEVHLTIGAVRYDAHGRERKGVCSILCAERLQPGDTLPVYVQHNQNFKLPKDPETPIIMVGPGTGVAPFRSFMQEREETGAEGKAWMFFGDQHFVTDFLYQTEWQNWLKDGVLTKMDVAFSRDTEEKVYVQHRMLEHSAELFEWLQEGAAVYICGDEKHMAHDVHNTLLEIIEKEGNMSREEAEAYLADMQQQKRYQRDVY”, the protein production result was “failed”. As for “MQLSHRPAETGDLETVAGFPQDRDELFYCYPKAIWPFSVAQLAAAIAERRGSTVAVHDGQVLGFANFYQWQHGDFCALGNMMVAPAARGLGVARYLIGVMENLAREQYKARLMKISCFNANAAGLLLYTQLGYQPRAIAERHDPDGRRVALIQMDKPLEP”, the entry is “not failed”; as for “MQMKKDFGYIRVGVASCELKVANPNYNVKSIISIMKKAYRRHHIKVLVFPELCVTGYTCGDLFNQNLLIKRAENELNNLLVSTSNINMITAVGMPVKADNQLFNCAVIINNGNILGVVPKTFIPTYNEFYEKRNFAGAISRISDEIILCGKKVPFGENLLFKDIYSELCIGIDICEDLWVNIPPSSYHTLNGANLILNLSASDEIVAKSDYRRDLVRLQSAKCITSYAYASSGQTESTSDLVFSGHSIIADNGSILKDIKFEEASYVKYADVDIEKLISDRIKFNTYMGRIEDKEYRTINFHLGYNENMHLERYVEASPFVPSNKSKRNIRCREILDLQASGLYQRLNKTGINKAVVGISGGLDSTLALLVIVEAFKKLKAPMKNIIGITMPGFGTTRRTYNNAVELMKKLGITIKEISIKKACIQHFNDIGQDLNTHDTIYENSQARERTQILMDIANKEGAIVVGTGDLSELALGWCTYNGDQMSMYGVNSSIPKTLVKYLIMWYAEASKDNDIRNILLDIYNTPVSPELLPPDKEGNIKQKTEDLIGSYELNDFFLYNMLRSGYEPLKILYLANIAFKDKYSEDVIHSALKNFYKRFFTQQFKRNCMPDGVKIGSVSLSPRGDLRMPSDASYGLWMDEL”, “failed”. As for “MQMLRNLSTRTRSRRGGYERVSDDSTFSLLGAKLRRSTSVPYYAPSIRLGGDFPVILEKLPRQKPTKTVVTSKLSHPIFSLFDGYRRHNKKKATAKPEFSRYHEYLKESGMWDLRSNSPVIYFK”, the entry is “failed”.

As for “MQNIARNISNRLAGFVYRQMRKAHANANSTVGYSVNANGALLAGCVIDCRSGKSDGRVFFGKDSVLSCRIVLERDVGTVHIGNDSYVGGSQIICADHIEIGNNVLISWGCTIVDHDSHSVDWRNRAEDVRKWREGLLSGGLEKASESKDWAVVEKAPIKIGDKTWLGMNVTVLKGITIGEGAVVAAGSVVTKDVDPWTLVAGNPARVIKELPKS”, the protein production result is on record as “failed”.

Consider “MQNMFDGVQLFVEVVEAGGFAKAGKRLSLTRSTIGKAIARLEMRLGVQLFQRTTRVQSLTEDGQQYYERCLRAIKELRAGEAMLEQGRREVAGRLHVSLPVLFGRQCVAPILRTYAREHPQLELELNFSDHHVDLIADGFDLAVRNGPLGNGTTLRARRLGNQRKILCASPTYLAARGKPHTLADLADHDLLTYCRNDRNMAWTLPDATGALVDIPITSRLRCNDLEVIADTAVDGMGVAWLPYWLLMERMQRGELIGIWGDRPSAVIECHVVWPAAQHVPLRSRLAINLLAAELPKYLEA”, for which the protein production entry is listed as “failed”. For “MQNPRRICVADPNHRLSQKRFTRNSRDIFICPDCGCIMADVDFDHDQYESGDYYTMQHKTVQSIEEVWGFRWRYILDQILKINGRSSLLDVGAGNGYFVALASREFSFDASGLEISQEEVQFAADVLNIGLIREDLTQHNLDYDVVTCLNVLEHVVDPQLFLSHLVNRVKPGGLLVITTPNPACIHRKVKGLKNWNMIAPPHHINLFTKESLYILLMRYGLIQLDYQTISTYVNFVRGFDTENLLLRRLFFNLLKIFDLGADHFFIVKKPSQC” the value was “failed”; for “MQNQYFTVQENYKERFYQIPKVFFTSENYKNLTNDMKIAYAILRDRLNLSIKNSWVDEDGNIYFVYSNEKLMEILNCKKEKLTKIKKGL”, “failed”.

“MQNSIYKQFWKYTIPTVAAMLVNGLYQVVDGIFIGRYVGADGLAGINVAWPVIGSILGIGMMVGVGTGALTSIKQGEQDQQGAKRVLTTGLLFLLALMPIVATILFFFADDFIRWQGAQERVYELGLQYLQILIVACIFSLGSIAVPFLLRNDNSPNLATILMVIGAIINIVLDYVFIAWMNWELTGAAIATALAQMVVTVLGVGYFFSSKAKLRLTFRELKVQLDAIPKIVLIGTSSFFMYAYGSTMVALHNALFAQYGSPLLIGAYAILGYIVTVYYLVAEGIANGMQPLVSYNHGARNQDNIRKLLQIAMGTSVLGGVVFVVLMNLFPYQLVSVFNDADQQLIESAVMGIRLHMFALFMDGFLVVAGAYYQSVNKGSKAMFVTVGNMLIQLPFLFIMPKLLGVTGIWIAFPLSNIALSLVVMSMLWRDIKKLMVDSPVEPSIQAS”: the protein production entry was “not failed”. Regarding “MQPFLFSDSSACLHVSPAMKISVIIPVYNDPSGIDATLRSVMEQDHSDYEVIPVDNNSTDRTPAVIREWAHQYPNRIRPASEHDTQSSYAARNAGIEAAQGEILVFIDADMAAPSYWLTDVHEAFSASEADYLGYEVDVYVPEDEAGFWGWYDTVMGLPSRYHYDEKQFVPTSCLAVRRAVFEKVGRFDETAVSGGDKEFGERVHRHPDLTTAFRDDIVVCHPARTTFEAHRAKALRVGRGLARLCDPSTASGDTTSVLIELLLHAVPPDPRRVAEQAHDVPAHQFLRLYIADWILRYLRLYGALTYCRKEAPE”, the protein production result is “failed”. Turning to “MQPFVYMAAPARIVFSAGSSADVAEEIRRLGLSRALVLSTPQQKGDAEALASRLGRLAAGVFSEAAMHTPVEVTKTAVEAYRAAGADCVVSLGGGSTTGLGKAIALRTDAAQIVIPTTYAGSEVTPILGQTENGVKTTMRGPEILPEVVIYDAELTLGLPVAISMTSGLNAMAHAAEALYARDRNPIASMMAVEGLRAMIEALPVVRQAPHDIGARETALYGAWLCGTVLGAVGMSLHHKLCHTLGGSLDLPHAETHAVLLPHTIAYVEEAAPNLLAPLAALVGGRAGAGLFDFAARLGAPSSLAALGVGADDLDPMAELATANPYWCPRPIEKTAIRDLLQRAFEGARPA”, the protein production result is “not failed”. As for “MQPRFLGQLGLADVVTVANAALGFIAAAVAVFDTELAARLILLAAIADGLDGVIARFRGGTPVGPILDSLADVASFGVAPAVLVYALASGGEVTLDEPLAVAAVVVAALYVAMAVVRLGFYLLEDDGAPETVGVQTTLAATVLSVLHLAGVTDPAVFVAATAAFAYLMVASITYPELYARDALILGGLQACVVLFPTAFGRAFPRVLLVFALGYLLLAPVAYWRSTEGKRS”, the entry is “failed”.

(Values after a protein production outcome set (Wang et al. 2014).)
